Measurements as given in publication PMC10139975 (iScience, 2023).

Target: T1, GPR110 F663S mutant (C-terminal HA tag) (human, UniProt Q5T601-1 20-910, F663S)
T1 sequence (looked up): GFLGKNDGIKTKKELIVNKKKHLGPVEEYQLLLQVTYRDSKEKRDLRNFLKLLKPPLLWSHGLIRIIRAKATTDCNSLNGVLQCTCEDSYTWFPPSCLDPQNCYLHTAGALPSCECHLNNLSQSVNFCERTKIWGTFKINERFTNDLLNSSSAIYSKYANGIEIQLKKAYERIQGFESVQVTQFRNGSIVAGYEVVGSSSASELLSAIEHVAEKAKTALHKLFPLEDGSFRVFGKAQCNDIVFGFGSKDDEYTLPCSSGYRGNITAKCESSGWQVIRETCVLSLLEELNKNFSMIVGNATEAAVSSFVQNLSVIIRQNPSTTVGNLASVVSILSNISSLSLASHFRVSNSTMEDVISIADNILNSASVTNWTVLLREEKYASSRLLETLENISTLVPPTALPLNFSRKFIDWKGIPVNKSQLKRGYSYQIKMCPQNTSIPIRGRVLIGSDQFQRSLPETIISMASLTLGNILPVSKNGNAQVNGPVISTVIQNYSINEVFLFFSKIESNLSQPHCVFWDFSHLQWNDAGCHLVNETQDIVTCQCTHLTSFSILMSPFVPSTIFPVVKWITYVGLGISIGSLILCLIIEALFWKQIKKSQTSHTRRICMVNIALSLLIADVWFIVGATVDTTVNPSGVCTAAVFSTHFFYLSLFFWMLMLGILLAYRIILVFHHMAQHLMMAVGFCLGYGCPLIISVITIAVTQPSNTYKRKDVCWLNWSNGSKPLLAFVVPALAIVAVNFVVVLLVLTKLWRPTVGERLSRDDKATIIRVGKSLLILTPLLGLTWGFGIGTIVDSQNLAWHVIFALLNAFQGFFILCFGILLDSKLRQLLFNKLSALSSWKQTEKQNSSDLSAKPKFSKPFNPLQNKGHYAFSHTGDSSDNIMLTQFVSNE
Experiment: cross-linking + affinity purification with mass spectrometry

fold less than with WT GPR110 (label-free MS quantitation): 5 fold
B1: occludin (tight junction protein) (natural protein, human (endogenous in HEK293), UniProt Q16625 1-522, looked up)
chain: MSSRPLESPPPYRPDEFKPNHYAPSNDIYGGEMHVRPMLSQPAYSFYPEDEILHFYKWTSPPGVIRILSMLIIVMCIAIFACVASTLAWDRGYGTSLLGGSVGYPYGGSGFGSYGSGYGYGYGYGYGYGGYTDPRAAKGFMLAMAAFCFIAALVIFVTSVIRSEMSRTRRYYLSVIIVSAILGIMVFIATIVYIMGVNPTAQSSGSLYGSQIYALCNQFYTPAATGLYVDQYLYHYCVVDPQEAIAIVLGFMIIVAFALIIFFAVKTRRKMDRYDKSNILWDKEHIYDEQPPNVEEWVKNVSAGTQDVPSPPSDYVERVDSPMAYSSNGKVNDKRFYPESSYKSTPVPEVVQELPLTSPVDDFRQPRYSSGGNFETPSKRAPAKGRAGRSKRTEQDHYETDYTTGGESCDELEEDWIREYPPITSDQQRQLYKRNFDTGLQEYKSLQSELDEINKELSRLDKELDDYREESEEYMAAADEYNRLKQVKGSADYKSKKNHCKQLKSKLSHIKKMVGDYDRQKT
